The chains are these.
B5: DDA1 fused to the binding domain of GAL4 (pGBKT7-DDA1) (other)
chain: MKLLSSIEQACDICRLKKLKCSKEKPKCAKCLKNNWECRYSPKTKRSPLTRAHLTEVESRLERLEQLFLLIFPREDLDMILKMDSLQDIKALLTGLFVQDNVNKDAVTDRLASVETDMPLTLRQHRISATSSSEESSNKGQRQLTVSMASILGDLPSFDPHNFSQHRPSDPSNPSKMVPTTYRPTHNRTLPPPDQVITTEVKNILIRSFYQRAEEKLRPKRPATDHLAAEHVNKHFRAASSSSSTQGL
notes: Other vector-encoded residues of pGBKT7 are not described; also called AtDDA1; DET1-, DDB1-Associated 1

The target in assay [1] is B5. In words: yeast two-hybrid. The method, then: (§1) (A) Y187 yeast cells transformed with pGBKT7-DDA1 were used to screen a cDNA library prepared from Arabidopsis seedlings in the pGADT7 vector and transformed into AH109 cells. Positive clones included truncated versions of ABA receptors PYL4 and PYL9. Yeast clones were grown in selective media containing different concentrations of 3AT (ranging 0.5 to 5 […]). Empty pGADT7 vector was used as negative control. (B-C) DDA1 interaction with full length PYL8 (B), PYL4, PYL5, PYL6 or PYL9 (C) was assessed using yeast two hybrid experiments as in (A). Physical association between PYL8 and other components of the CDD complex (DDB1a, DDB1b, DET1 and COP10) was also tested (B).
(§2) The molecular basis of DDA1 activity is unknown. To get insights into its mechanism of action, we searched for proteins that interact with DDA1. With this aim, we conducted a yeast two-hybrid screen using DDA1 as bait. Thus, the full-length coding sequence of DDA1 fused to the binding domain of GAL4 was used to screen a cDNA library prepared from Arabidopsis seedlings. From over 15 million clones screened, 200 were identified as potential DDA1 interactors. Among them, 20 were subsequently confirmed by retransformation into yeast. […] We aimed to determine whether DDA1 interacts with full length PYL4 and PYL9 and with other Arabidopsis PYR/PYL/RCAR family members using yeast two hybrid assays.
(§3) The full length DDA1 cDNA was cloned into the pGBKT7 (Gal4 DNA binding domain, BD; Clontech). […] To confirm protein interactions, plasmids were co-transformed into Saccharomyces cerevisiae AH109 cells, following standard heat-shock protocols (Chini et al., 2007).

Assay [2] deals with T1, full length PYL8 (Arabidopsis, UniProt Q9FGM1 1-188).
T1 construct: Gal4-domain fusion in the yeast two-hybrid assays; also called ABA receptor PYL8
T1 sequence (looked up): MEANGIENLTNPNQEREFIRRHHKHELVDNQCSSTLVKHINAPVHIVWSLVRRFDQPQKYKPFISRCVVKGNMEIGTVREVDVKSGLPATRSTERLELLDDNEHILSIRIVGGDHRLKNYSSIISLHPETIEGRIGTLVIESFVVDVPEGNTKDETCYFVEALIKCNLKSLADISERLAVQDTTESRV
In words: yeast two-hybrid (FIG. 4B). The method, then:
as §1
The full length DDA1 cDNA was cloned into the pGBKT7 (Gal4 DNA binding domain, BD; Clontech). […] To confirm protein interactions, plasmids were co-transformed into Saccharomyces cerevisiae AH109 cells, following standard heat-shock protocols (Chini et al., 2007). Successfully transformed colonies were identified on yeast synthetic drop-out lacking Leu and Trp; these colonies were resuspended in water and transferred to selective media lacking Ade, His, Leu and Trp. Plates without His were supplemented with different concentrations of 3-amino 1,2,4-triazole (3AT; ranging 0.5-10 mM). Yeast cells were incubated at 30° C. during 6 days. Empty vectors were co-transformed as negative controls. To test the DDA1 interaction with specific DDB1a domains, DDB1a truncated versions were generated and cloned into the pGADT7 vector as follows: BPA (aa 16-350), BPB (aa 387-704), BPA+BPB (aa 16-704), BPC (aa 704-1002) and BPB+BPC (aa 350-1002). Full length DDB1a was used as a positive control.

For assay [3], the target named is T2, YFPN:PYL8 (Arabidopsis, UniProt Q9FGM1 1-188).
T2 construct: BiFC construct expressed transiently in N. benthamiana leaves; also called PYL8 fusion with the N-portion of YFP; not shown: N-portion of the yellow fluorescent protein (YFP)
T2 sequence (looked up): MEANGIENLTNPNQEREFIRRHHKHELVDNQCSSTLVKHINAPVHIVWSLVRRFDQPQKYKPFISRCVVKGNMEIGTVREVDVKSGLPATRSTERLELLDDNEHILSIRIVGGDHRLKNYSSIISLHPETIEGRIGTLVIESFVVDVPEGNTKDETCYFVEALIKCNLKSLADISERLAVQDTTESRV
Description: BiFC in N. benthamiana epidermal cells. The method, then:
To confirm that DDA1 and PYL8 interact in planta, we performed bimolecular fluorescence complementation (BiFC) assays. N. benthamiana leaves were coinfiltrated with Agrobacterium tumefaciens cells to express DDA1 and PYL8 fusions with the Nor C-portions of the yellow fluorescent protein (YFP). The infiltrated leaves were analyzed under the confocal fluorescence microscope 3 d after infiltration.
YFPN:PYL8/DDA1:YFPC were co-infiltrated into the abaxial surface of 3-week-old N. benthamiana plants as described (Voinnet et al., 2003). The p19 protein was used to suppress gene silencing. The empty vectors were used as negative controls. Fluorescence was visualized in epidermal cells of leaves after 3 d of infiltration using a Leica sp5 confocal microscope. Nuclei were visualized after submerging the leaves in a DAPI solution (1 μg mL-1 DAPI in 100 mM phosphate buffer, 0.5% Triton X-100).

In assay [4] the target is T3, DET1 (Arabidopsis, UniProt P48732 1-543).
T3 construct: Endogenous protein in the TAP; also called DEETIOLATED 1
T3 sequence (looked up): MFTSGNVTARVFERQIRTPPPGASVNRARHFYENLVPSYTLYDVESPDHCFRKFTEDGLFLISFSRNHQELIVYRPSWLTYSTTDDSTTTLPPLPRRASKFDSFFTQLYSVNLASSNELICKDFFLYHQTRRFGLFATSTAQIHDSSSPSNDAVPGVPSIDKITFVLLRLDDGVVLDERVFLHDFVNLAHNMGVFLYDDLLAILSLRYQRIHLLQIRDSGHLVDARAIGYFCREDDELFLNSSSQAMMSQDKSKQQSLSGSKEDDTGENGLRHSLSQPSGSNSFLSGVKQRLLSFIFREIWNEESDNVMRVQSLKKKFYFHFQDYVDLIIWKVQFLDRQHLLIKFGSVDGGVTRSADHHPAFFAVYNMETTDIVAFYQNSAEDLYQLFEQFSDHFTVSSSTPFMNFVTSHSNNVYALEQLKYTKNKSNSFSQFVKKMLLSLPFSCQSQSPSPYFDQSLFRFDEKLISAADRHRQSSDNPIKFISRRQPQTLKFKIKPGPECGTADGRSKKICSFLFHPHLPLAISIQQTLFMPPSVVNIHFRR
Description: yeast two-hybrid. The method, then: as §1, §2, §3

B1: PYL5 (receptor, Arabidopsis, UniProt Q9FLB1 1-203, looked up)
chain: MRSPVQLQHGSDATNGFHTLQPHDQTDGPIKRVCLTRGMHVPEHVAMHHTHDVGPDQCCSSVVQMIHAPPESVWALVRRFDNPKVYKNFIRQCRIVQGDGLHVGDLREVMVVSGLPAVSSTERLEILDEERHVISFSVVGGDHRLKNYRSVTTLHASDDEGTVVVESYIVDVPPGNTEEETLSFVDTIVRCNLQSLARSTNRQ
For the molecule B1, in assay [1], the binding result is listed as “no binding”.

B2: PYL6 (receptor, Arabidopsis, UniProt Q8S8E3 1-215, looked up)
chain: MPTSIQFQRSSTAAEAANATVRNYPHHHQKQVQKVSLTRGMADVPEHVELSHTHVVGPSQCFSVVVQDVEAPVSTVWSILSRFEHPQAYKHFVKSCHVVIGDGREVGSVREVRVVSGLPAAFSLERLEIMDDDRHVISFSVVGGDHRLMNYKSVTTVHESEEDSDGKKRTRVVESYVVDVPAGNDKEETCSFADTIVRCNLQSLAKLAENTSKFS
Consider B2, for which, in assay [1], the binding result is “no binding”.

B3: COP10 (other, Arabidopsis, UniProt Q9LJD7 1-182, looked up)
chain: MMTPGGSGRLRPLPTAMYAGYSGTASSWVAKTSVSASGKRIQREMAELNIDPPPDCSAGPKGDNLYHWIATIIGPSGTPYEGGIFFLDIIFPSDYPFKPPKLVFKTRIYHCNVDTAGDLSVNILRDSWSPALTITKVLQAIRSIFLKPEPYSPALPVIARLYLTDREKHDEVAKEWTLRFAK
notes: Endogenous protein in the TAP; also called CONSTITUTIVE PHOTOMORPHOGENIC10
As to B3, the binding result in assay [1] and in assay [2] was “no binding” throughout.

B4: DDA1:YFPC (other)
chain: MASILGDLPSFDPHNFSQHRPSDPSNPSKMVPTTYRPTHNRTLPPPDQVITTEVKNILIRSFYQRAEEKLRPKRPATDHLAAEHVNKHFRAASSSSSTQGL
notes: BiFC construct expressed transiently in N. benthamiana leaves; also called DDA1 fusion with the C-portion of YFP; not shown: C-portion of the yellow fluorescent protein (YFP)
Regarding B4, the binding result in assay [3] is on record as “binds”.

For B5, in assay [4], the binding result is listed as “no binding”.

(Values after patent US20160102316A1, “STRESS TOLERANT PLANTS” (CONSEJO SUPERIOR DE INVESTIGACIONES CIENTIFICAS(CSIC), priority 2013, published 2016).)
